Here are results for 21 variants from the RNAGym collection of RNA variant scans (doi:10.1073/pnas.2313332121).

The chains are these.
B1: TPR t1 (parent)
chain: GACCAAUCUGCCCUCAGAGCUCGAGAACAUCUUCGGAUGCAGAGGAGGCAGGCUUCGGUGGCGCGAUAGCGCCAACGUCCUCAACCUCCAAUGCAUCCCACCACAUGAUGAUGCCUGAAGAGCCUUGGUUUUUUG

In the series the parent is B1. Description: polymerase ribozyme fitness, log enrichment relative to wild type (log ratio); higher = more active; in vitro selection for triplet polymerase activity. In short, it runs like this: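 Each subunit of a heterodimeric triplet polymerase ribozyme was represented by a PCR-built, transcribed mutant library that underwent triplicate single-round in vitro selection with frozen incubation at −7 °C. Extended constructs were recovered by gel excision, streptavidin-bead capture and RT-PCR, and Illumina sequencing of input and output libraries kept genotypes with ≥10 input reads and ≥1 read per output. Fitness is the logarithm of genotype enrichment relative to wild-type enrichment, from inverse-variance-weighted replicate averages, with a logarithm base of 2.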
For GACCAAUCUGCCCUCAGAGCUCCAGGACAUCUUCGGAUGCAGAGGAGGCAGGCUUCGGUGGCGCGAUAGCGCCAACGUCCUCAACCUCCAAUGCAUCUCACCACGUGAUGAUGGCUGAAGAGCCUUGGUUUUUUG [G23C A26G C98U A105G C114G], the “polymerase ribozyme fitness (log ratio)” value was -7.07.
Regarding GACCAAUCUGCCCUUAGAGCUCGAGAACAUCUUCGGAUGCAGAGGAGGCAGGCUUCGGUUGCGCGAUAGCGCCAACGUCCUCAACCUCCAAUGCAUCCCACCACAUGAUGAUGCCUGAAGAGCCUUGGUUUUUUG [C15U G60U], the “polymerase ribozyme fitness (log ratio)” value was -1.08.
The figure for GACCAGUCUGCCCUCAGAGCUCGAGAACAUCUUCGGAUGCAGAGGAGGCAGGCUUCGGUGGCGCGAUAGCACCAACGUCCUCAACCUCCAAUGCAUCCCACCACAUGAUGAUGCCUGAACAGCCUUGGUUUUUUG [A6G G71A G120C] is 0.128; for GACCAAUCUGCCCUCAGAGCUCGAGAACAUCUUCGGAUGCAGAAGAGGCAAGCUUCGGUGGCGCGAUAGCGCCAACGUCCUCAACCUCCAAUGCAUCCCACCAUAUGAUGAUGCGUGAAGCGCAUUGGUUUUUUG [G44A G51A C104U C115G A121C C124A] it is -5.73.
For GACCAAUCUGCCCUCAGAGCUCGAGAACAUCUUCGGAUGCAGAGGAGUCAGGCUUCGGUGGCGCGAUAGCGCCAACGUCCUCAACCUUCAAUGCAUCCCACCACAUGAUGAUGCCUGAAGAGCCUUGGUUUUUUG [G48U C88U], the “polymerase ribozyme fitness (log ratio)” value is -1.36.
The figure for GACCAAUCUGCCCUCAGAGCUCGAGAACACCUUCGGAUGCAGAGGAGGCCGGCUUCGGUGGCGCGAUAGCGCCAACGUCCUCAACCUCCAAUGCAUCCCACCACAUGAUGAUGCCUGAAGAGCCUUGGUUUUUUG [U30C A50C] is -2.91; for GACCAAUCUGCCCUCAGAGCUCGAGAACAUCUUCGGAUGCUGAGGAGGCAGGCUUCGGUGGCGCGAUAGCGCCAACGUCCACAACCUCCAAUGCAUCCCACCACAUGAUGAUGCCUGAAGCGCCUUGGUUUUUUG [A41U U81A A121C] it is -0.475.
To GACCAAUCGGCCCUCAGAGCUCGAGAACAUCUUCGGAUGCAGAGAAGGCAGGCUUCGGUGGCGCGAUAGCGCCAACGUCCUCAACCUCCAAUGCAUCCCACCACAUGAUGAUGCCUGAAGAGCCUUGGUUUUUUG [U9G G45A] belongs 0.293; to GACCAAUCUACCCUCAGAGCUCGAGAACAUCUUCGGAUGCAGAGGAGGCAGGCUUCGGUGGCGCGAUAGCGCCAACGUCCUCAACCUCCAAUGCAUCCCACCACAUGAUGAUGCCUGAAUAACCUUGGUUUUUUG [G10A G120U G122A], 1.51.
The figure for GACCACUCUGCCCUCAGAGCUCGAGAACAUCUUCGGAUGCAGAGGAGGCAGGCGUCGGUGGUGCGAUAGCGCCAACGUCCUCAACCUCCAAGGCAUCCCACCACAUGAUGAUGCCUGAAGAGCCUUGGUUUUUUG [A6C U54G C62U U92G] is -4.44.
As for GACCAAUCUGCCCUCAGAGCUCGAGAACAUCCUCGGAUGCAGAGGAGGCAGGCUUCGGUGGCGCGAUAGCGCCAAUGUCCUCAACCUCCUAUGCAUCCCACCACAUGAUGAUGCCUGAAGAGCCUUGGUUUUUUG [U32C C76U A90U], the “polymerase ribozyme fitness (log ratio)” value was -2.2.
To GACCAAUCUGCCCUCAGAGCUCGAGAACAUCUUCGGAUGCAGAGGAGGCAGGCUUAGGUGGCGCGAUAGCGCCAACGUCCUCAACCUCUAAUGCAUCCCACCACAUGAUGAUGCCUGAAGAGCCUUGGUUUUUUG [C56A C89U] belongs -1.
The figure for GACCAAUCUGCUGUCAGAGAUCGAGAACAUCUUCGGGUGCAGAGGUGGCAGGCUUCGGUGGCGCGAUAGCGCCAACAUCCUCAACCUCCAAUGCAUCCCACCACAUGAUGAUGCCUGAAAAGCCUUGGUUUUUUG [C12U C13G C20A A37G A46U G77A G120A] is -2.45.
Regarding GACCAAUCGGCCCUCAGAGCUCGAGAACAUCUUCGGAUGCAGAGGAGGCAGGCUUCGGUGGCGCGAUAGCGCCAACGUCCUCAACCUCCAAUGCAUCCCACCAUAUGAUGAUGCCUGAAGAGCCUUGGUUUUUUG [U9G C104U], the “polymerase ribozyme fitness (log ratio)” value was determined as 0.944.
To GACCAAUUUGCCCUCAGAGCUCGAGAACAUCUUCGGAUGCAGAGGAGGCAGGCUUCGGUGGCGCGAUAGCGCCAACGUCCUCAACCUCCAAUGCAUCCCACCCCAUGAUGAUGCCUGAAGAGCCUUGGUUUUUUG [C8U A103C] belongs -4.8.
To GACCAAUCUGCCCUCAGAGCUCGAGAACAUCUUCGGAUGCAGAGGAGGCAGGCUUUGGUGGCGCGAUAGCGCCAACGUCCUCAACCUCCAAUGCAUCCCACCACAUGACGAUGCCUGAAGAGCCUUGGUUUUUUG [C56U U109C] belongs -2.15; to GGCCAAUCUGCCCUCAGAGCUCGAGAACAUCUUCGGAUGCAGAGGAGGCAGGCUUCGGUGGCACGAUAGCGCCAACGUCCUCAACCUCCAAUGCAUCCUAACACAUGAUGAUGCCUGAAGGGCGUUGGUUUUUUG [A2G G63A C99U C101A A121G C124G], -4.81; to GACCAAUCUGCCCUCAGAGCUCGAGAACAUCUUCGGAUGCAGAGGAGGCAGGCUUCGGUGGCGCGAUAGCGGCAACGUCCUCAACCUCCAAUGCAUCCCACAACAUGAUGAUGCCUGAAGAGCCUUGGUUUUUUG [C72G C102A], -2.79.
The figure for GACCAAUCUGCCCUCAGAGCUCGAGAACAUCUUCGGAUGCAGAGGAGGCAGGCUUCGGUGGCGCGAUAGCGCCAACGUCCUCACCCUCAAAUGCAUCCCACCACAUGAUGAUACCUGAAGAGCCUUGGUUUUUUG [A84C C89A G113A] is -2.63; for GACCAAUCUGCCCUCAGAGCUCGAGAACAUCUUCAGAUGCAGAGGAGGCAGGCUUCGGUGGCGCGAUAUCGCCAACGUCCUCAACCUCCAAUGCAUCCCAGCACAUGAUGAUGCCUGAAGAGCCUUGGUUUUUUG [G35A G69U C101G] it is -2.83.
On to GACCAAUCUGCCCUCAGAGCUCGAGAACAUCUUCGGAUGCAGAGGAGACAGGCUUCGGUGGAGCGAUAGCGCCAACGUCCUCAACCUCCAAUGCAUCCCACCACAUGAUGAUGCCUGAAGAGCCUUGGUUUUUUG [G48A C62A], for which the “polymerase ribozyme fitness (log ratio)” value is -2.76.
